Results as given in the supplement of paper PMC12042874.
± gives the uncertainty stated by the source.

Assay: amyloid nucleation score (Sup35N fusion, yeast selection) (log enrichment); library NNK1; higher = more nucleation; inactive = no reads after selection
Summary of the method: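 Yeast lacking psi expressed peptides of 20 random codons fused to Sup35N, received 100 μM copper sulfate for 24 hours, and were then grown for 7 days at 30°C on medium lacking adenine and uracil. Illumina sequencing of input and output plasmid inserts provided the reads. Nucleation scores are DiMSum log enrichments of output over input, centred on the mode of non-aggregating sequences. Any sequence with under 100 input reads was excluded.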

| Substance | amyloid nucleation score |
| --- | --- |
| FLIYVQYTKYSLWAPVFIHR | inactive |
| FLKKGERTIF | -0.446 ± 1 |
| FLLHF | -0.177 ± 0.62 |
| FLMGTFDCCTVSVLFFAGK | 5.44 ± 0.055 |
| FLQEVITDLKSVW | 3.08 ± 0.12 |
| FLQSIEGRSETGRMSRAISV | 1.08 ± 0.93 |
| FLRLAWGFLIMHEIRYAGWS | 0.413 ± 1.2 |
| FLSCFDILLHGVSYNSFQYW | 0.54 ± 0.42 |
| FLSEMWTKVICWVCCCPVYA | 4.64 ± 0.062 |
| FLSTCGCFRKLGWVMCECLG | -0.19 ± 0.47 |
| FLTNNLYCTPYF | 3.19 ± 0.079 |
| FLVNFGWRFAD | 1.14 ± 0.32 |
| FLWSYWPCSVGTEMTSQVRI | -0.459 ± 0.82 |
| FLYDYYG | inactive |
| FMCTINKFLYTVACPWHYLP | 3.96 ± 0.16 |
| FMIAFVFSKTRGQSIVSYSV | -0.747 ± 0.85 |
| FMRYNCNCKWDYFFRDCPAG | -0.357 ± 0.36 |
| FMSNIDLFTGFLRDMWFIIF | -0.312 ± 0.55 |
| FMSYD | 0.362 ± 0.79 |
| FMTEWSVTFMRMYMAYLGSV | 0.424 ± 0.29 |
| FMYKMGSYGMDM | -0.57 ± 0.5 |
| FNAIWVVLRVRNREYKTSVL | 1.03 ± 0.7 |

| Substance | amyloid nucleation score |
| --- | --- |
| FNCRVNFFDSVGY | 3.28 ± 0.16 |
| FNDEHKSSIG | -0.549 ± 0.58 |
| FNDQVQTWWLSYFEAPRYFK | -1.29 ± 2.4 |
| FNKVSAMDEAREYGVEVVAV | 5.46 ± 0.073 |
| FNLFVTFSMLRPWSAVPMLA | 0.338 ± 0.81 |
| FNLITSD | 0.074 ± 0.52 |
| FNLVKT | 0.704 ± 0.69 |
| FNMENVGKSQSRAAVRVRH | 0.961 ± 0.42 |
| FNMNHGMVSVRVEDRISRAC | 0.579 ± 0.28 |
| FNMPDKQILKLESLWHGMVA | inactive |
| FNRLSCFFSKSHPVQTGYNS | -0.01 ± 0.51 |
| FNRNNMKYQYFLKRIYMNW | -0.338 ± 1.4 |
| FNRSLLLALVSAFENGLLSW | 0.51 ± 1.2 |
| FNYIFRWLVMGTGSCTGS | 0.45 ± 0.29 |
| FPILVCVLKVLDVVLSDRVL | inactive |
| FQCDVIYA | -0.72 ± 0.52 |
| FQGLSFKHGAIGSAYSQSFD | inactive |
| FQRTGQKMWNNKKCSGRQHD | -0.648 ± 0.51 |
| FQSECSCIPKAWSVFMGTAG | -0.476 ± 0.58 |
| FRCYVFANCD | 1.59 ± 0.4 |
| FRDYLAKPCGGWEEYLVDDT | 0.68 ± 0.48 |
| FRHPMTDDDTPWKAARFVE | -1.6 ± 2.4 |

| Substance | amyloid nucleation score |
| --- | --- |
| FRMGFISYQTQTLTSRVFSF | 2.73 ± 0.19 |
| FRSFGVR | 0.924 ± 0.97 |
| FRSLFYVFHYLECFYL | 3.52 ± 0.12 |
| FRTSVDNLIGSENRISLRTS | 0.541 ± 0.68 |
| FRTYIFP | -0.091 ± 0.51 |
| FRVMDRVGSCLIVELTPG | 0.084 ± 0.55 |
| FRVMNRGAFYMRFKLG | 1.04 ± 0.67 |
| FRVNCVAWDASGTYTYGR | 0.525 ± 0.4 |
| FRVYVSCVLCNDCVVYHRFE | 7.602 ± 0.072 |
| FRYSSDWWSYS | -0.834 ± 1.4 |
| FSADVIFPCISSTLQKPPWW | -0.081 ± 0.54 |
| FSALYPGREISA | 1.51 ± 0.84 |
| FSDCCLSAKRA | -0.46 ± 0.73 |
| FSDFN | -0.3 ± 0.42 |
| FSEVSNWVFLNIYYVAFF | 0.934 ± 0.25 |
| FSGVMLPVLIISRF | inactive |
| FSHLFHQY | 2.13 ± 0.57 |
| FSKQTPVASEG | inactive |
| FSLRLRDSWWAHSGRLYAYK | -0.428 ± 0.56 |
| FSSIIG | -0.528 ± 0.4 |
| FSTMAYTWVLYTSWACAGAS | 0.075 ± 0.69 |
| FSTVILSAYSAFSFGIYLLS | 1.46 ± 0.33 |

| Substance | amyloid nucleation score |
| --- | --- |
| FSWCGWQRRSSVVAGSRILW | -0.118 ± 1.1 |
| FSYYVKGDGKERVGWMASIM | -0.94 ± 0.94 |
| FTDTICCIVMQFKPKRSGSS | 4.87 ± 0.088 |
| FTFNYIATVSQLPGFGVIHS | 0.343 ± 0.7 |
| FTGCGLSPMGT | 1.05 ± 0.73 |
| FTGRNSNMIFLSYWVCYYQN | 6.983 ± 0.05 |
| FTNPRINMSRFSLSFCPARY | 2.1 ± 0.25 |
| FTSLWDCALTHVVTFPAILG | -1.36 ± 1.8 |
| FTVARYKGIYNFSQGRCA | -0.33 ± 1.2 |
| FTVVISSLNEGEEHRVWCKF | -0.444 ± 1.2 |
| FTWERSH | 0.655 ± 0.68 |
| FTWWHIRGCGCCVACEGHRS | 0.05 ± 0.65 |
| FVADGLAPFLPMTVPLVGIK | -1.06 ± 2.4 |
| FVCYSLNSSSFMIPYWILLK | -0.293 ± 0.46 |
| FVFFSLGHLAFFARDRYSPW | 2.38 ± 0.094 |
| FVGRCLNMKTCRRCLLSWDN | 0.128 ± 1.6 |
| FVIDV | -0.568 ± 0.98 |
| FVLDNRKFYVCFVGYRFGLF | 4.83 ± 0.051 |
| FVLERTGIRLLCL | 0.363 ± 0.38 |
| FVLTYDLMLLQSGFNSRL | 0.756 ± 0.87 |
